# Laboratory results taken from US20260109787A1 (NATIONAL UNIVERSITY CORPORATION YAMAGATA UNIVERSITY, published 2026).
# B1: VHH-SpyTag-CD3 L chain (other)
# chain: QVQLVESGGALVQPGGSLRLSCAASGFPVNRYSMRWYRQAPGKEREWVAGMSSAGDRSSYEDSVKGRFTISRDDARNTVYLQMNSLKPEDTAVYYCNVNVGFEYWGQGTQVTVSSGGSGGAHIVMVDAYKPTKGGSGGGGSGGLVPRGSHMHMDIVLTQSPAIMSASPGEKVTMTCSASSSVSYMNWYKQKSGTSPKRWTYDTSKLASGVPARFSGSGSGTSYSLTISSMEAEDAATYYCQQWSSNPPTFGSGTKLEIKRTVAAPSVFIFPPSDEQLKSGTASVVCLLNNFYPREAKVQWKVDNALQSGNSQESVTEQDSKDSTYSLSSTLTLSKADYEKHKVYACEVTHQGLSSPVTKSFNRGEC
# notes: Fusion protein expressed in Expi293F cells; also called first protein; VHH-SpyTag-CD3 L chain region
# B2: VHH-SnoopTag (fragment released from VHH-SnoopTag-Herceptin L chain by thrombin) (other, not shown: small tags and cut ends)
# chain: QVQLVESGGALVQPGGSLRLSCAASGFPVNRYSMRWYRQAPGKEREWVAGMSSAGDRSSYEDSVKGRFTISRDDARNTVYLQMNSLKPEDTAVYYCNVNVGFEYWGQGTQVTVSSGGSGGKLGDIEFIKVNKGGSGGGGSGG
# notes: Seen only as a band on SDS-PAGE, together with VHH-SnoopCatcher
# B3: VHH-SpyTag (fragment released from VHH-SpyTag-CD3 L chain by thrombin) (other, not shown: small tags and cut ends)
# chain: QVQLVESGGALVQPGGSLRLSCAASGFPVNRYSMRWYRQAPGKEREWVAGMSSAGDRSSYEDSVKGRFTISRDDARNTVYLQMNSLKPEDTAVYYCNVNVGFEYWGQGTQVTVSSGGSGGAHIVMVDAYKPTKGGSGGGGSGG
# notes: Seen only as a band on SDS-PAGE, together with VHH-SpyCatcher
# Assays:
# [1] = target: T1, VHH-SpyCatcher-CD3 H chain; assay: SDS-PAGE before and after thrombin cleavage; the complex bands are lost after cleavage
# T1 construct: Fusion protein expressed in Expi293F cells; also called second protein; VHH-SpyCatcher-CD3 H chain region
# Method: Next, it was examined whether the band at the estimated molecular weight of the complex in Example 1(3) above was derived from the complex that included the VHH-SpyTag-CD3 L chain and the VHH-SpyCatcher-CD3 H chain. Specifically, the protein was purified in the same manner as in Example 1(2) above, and the elution fraction after the purification was added to a thrombin buffer (2.5 mmol/l CaCl₂), 150 mmol/l NaCl, 20 mmol/l Tris-HCl (pH8.0)). After the addition, the resulting mixture was dialyzed for 6 hours. Then, thrombin (cleaving ability: 2 unit/μl, manufactured by Wako Pure Chemical Industries, Ltd.) was added in accordance with the yield of the protein. After the addition, the mixture was left to stand at 25° C. overnight. After the standing, a sample after the cleavage reaction was purified using a protein A column. After the purification, a purified thrombin-cleaved sample was obtained. Then, SDS-PAGE was conducted. The SDS-PAGE was conducted in the same manner as in Example 1(3) above, except that the purified thrombin-cleaved sample was used as a sample for the SDS-PAGE in addition to the purified sample. […]
# [2] = target: T2, VHH-SnoopCatcher (fragment released from VHH-SnoopCatcher-Herceptin H chain by thrombin); assay: SDS-PAGE of the purified thrombin-cleaved sample
# T2 construct: Seen only as a band on SDS-PAGE, together with VHH-SnoopTag
# [3] = target: T3, VHH-SpyCatcher (fragment released from VHH-SpyCatcher-CD3 H chain by thrombin); assay: SDS-PAGE of the purified thrombin-cleaved sample
# T3 construct: Seen only as a band on SDS-PAGE, together with VHH-SpyTag
binder,measurement,setting,value
B1,binding result,[1],binds
B2,binding result,[2],binds
B3,binding result,[3],binds
